This series is described as follows: soluble fraction after stress (log2 fold change); higher = more stays soluble; pooled small domains, quantitative proteomics. The conditions noted are these: stress: 50 degC. In outline: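 After stress at 50°C, the amount of each protein still soluble was measured. This was done on pooled custom libraries of small protein domains, using high-throughput quantitative proteomics. The figure given is a base-two log fold change and stands for aggregation propensity, with higher values meaning more protein stays in solution.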

Regarding “HMNTEEVGSYLKKLRLEHSFTQKELAGKLYITHQAVSNWEKGKALPDIGILSQLGDIYGISIDNLLLK”, the “soluble fraction (log2)” value is -1.79. Then “HMADLIIMSSDATEKQVDKVINKIKNMGFNVNISKGTEKTIIGIIGDTRGISDEVFKIMPGVIEVISILRD”, with -0.39; and “HMNIQKYFAGREQFIELLEAVGIRTLEQFASADPSTVLPELHQAKRMLKLQTEIPSAPVFREWVNQALS”, with -0.237; and “HMKEQLLLGFKVRSLRGIDLGFVKFIEGSAFQSFLKTDLTIIPNVPNYVKKIDNVKKIILVDWESD”, with -2.69.

As to “HMVDPWLEQVHRASAAYATAHGSARIPTTHPDLGWKVVRVRQRHRKGLLSDEWVAKFEALPGWTWEPK”, the “soluble fraction (log2)” value is -0.282. With “HMDWFDELKVSTDDSGRVTAPEESEFMFQTSNEKIFAGGDMVRGSDLVVTAIWEGRQAAEGIMDYLD”, the “soluble fraction (log2)” value was -0.16.

For the sequence “HMKDGAKYFQLFGLLKNEINRGIYQSGQKIPGENELAEKYGMSRQTVRQALSLLEQESLIERRQGSGTYVR”, the “soluble fraction (log2)” value is 0.108.

Consider “HMFEYDEIMEQSVPKIAWGSLLTIMKKASSHKEMLWYINETYKNGWSRSMVLNQIAMASYERSLIE”, for which the “soluble fraction (log2)” value is -0.851. To “HMKIGIYPGTFDPITHGHTDIIRRSLRVFDKVVVAVAPNPSKHPLFTLTERLEMIRIVMKELEHVEVT” belongs 0.0231; to “HMEEYTVEFVKHKVKRKQTLYTISKLYNVSIDDIIKYNSQIEGFNLSRRMELNIPVKKTLIVKNE”, -1.7; to “HMDSLIEYENERSLRRLINENLSDYERTVWWLYYAGADAAHIAEQTGRSKRSAENAITRVRRKLRALITQS”, -1.08. To “HMKVDRLVSMILILLEQQRVGAQELADRFEVSVRTIYRDMEAINQAGIPVRSTSGVGGGFEIM” belongs -0.34. As to “HMSMRIDTNTLNYYVQNAQISLSVLRTKINNLDQFLSGEKQPTFNQLSEIAKKINVPTGLLLLNKS”, the “soluble fraction (log2)” value was -1.45. Then “HMSDPEAFIRQTVAAAEPEGIALSVLGKRVRGKFRTFKLRDLGYAQFRPYLGDLDGIKVEQRDGQSYARLD”, with -0.795; and “HMTKKFQIQTLDKLNVRKVADWNASAVTTVKKGQILDVVAEVSPKNGSTKMYKLESGLYITASEKYVKKQG”, with 0.0509. To “HMETKERDEQFLEMIRQNEGIIFKVASFYVDKEHPIGDLYQEVVLNLWKGYPSFRGESKYSTWIYRIALNT” belongs -0.0833; to “HMIRQETYLLVRKAVGALPVQMRKIIELAMQGKKNAEIAAQLSISEGTVHTLKKTAYKKLRDRLQE”, -2.22; to “HMYGVAEFDEKGNVLSIEEKPVQPKSNYAVVGLYFYPNKVVGVASGIKPSARGELEITTVNQTFLRDEELK”, 0.0827. Then “HMRRRKPLVSYEYGTRVYAPSEGEPRYRVVATDADGQRVFAKFSSEEAARHRAREIEGRLATS”, with -0.00468. For the sequence “HMRLEEVSVPQRLLAAIAEEREVQIGIVDGRGGTRVLRVEPLALEGGRLRARDVESGEEFTVLIHRVLL”, the “soluble fraction (log2)” value was -0.274. Consider “HMQKPIKPVKMHTVGPKENLSSIGRMYEVNGRVLANYNNIDYDKGLTIGQVLKIPPKGTTLEQVT”, for which the “soluble fraction (log2)” value was found to be 0.431.

“HMKPSNLTSDERTQLLAQLKTAMGSDQYNQLRRQVGEEKLLEYVLDNVPGIQEEILGNRAVQENIDLH”: the “soluble fraction (log2)” value amounted to 0.23. For the sequence “HMTTQTGTVKWFNEGKGFGFIAPDDGGKDLFAHFKEIQGTGFKTLAENQRVEFEVTQGQKGPQASKI”, the “soluble fraction (log2)” value was -0.0807. In the case of “HMNLLSPREKQSLTLYASGLTLREVASELKLSPNSVGKFISRGKFKLNKSGAIVNSKTSIYLELKKRNLI”, the “soluble fraction (log2)” value was -0.111. Then “HMTQEMPAEVKKKADAFNNAMDEENYTEAKAILAELEQNTAPSYPLLLQMQTRYAFETASWE”, with -0.00382; and “HMRSFGTLRRLPSGRYQASYAGPDLRRHAAPTTFETKLDAEGWLRDEHRMIERDEWTAPAARSQLK”, with 0.214; and “HMFAQDKKFITYKVKEGETVQSISKALSITPYDLLKLNPDIKDNVSQDDLLIIPNKQYDPLGDI”, with 0.144. To “HMSHKYKLTVPETGEGTRVDKFLSSALTELSRTRLKSLIEEGQVTLGGVKLTNPSHRVKSGDELNIEIPVP” belongs 0.146. Then “HMSDESRAEIVSSAKRLFQQYGYKKTTVSDIAKAMGKVKSAIYYYFPDKESLLRAVIDEEVG”, with -0.0483; and “HMGKEDISQINKLYQNQILDYETYIDTLNSFNIDTKSKDFKNLLDLFIKKSISFETFNKGIINIHNKS”, with 0.11; and “HMTNVYSLIGKRGIVVEDIDWQKGTGQVKIDGELWSVKTNEQINISKGTEVEVENIEGVKVFVKPI”, with 0.09. With “HMRAGALTTLTERERNVFDLVVTGHSNPEIARQLSIADVTVKTHVGHILSKLGVRDRVHLVIWAHRQGLAD”, the “soluble fraction (log2)” value was -2.61.

Regarding “HMSREEFLAGLEEALAGEVPASVIRENLNYYNSYISQEMAKGRTVDEIVDEIGEPRIVARTIIDSSEAAGE”, the “soluble fraction (log2)” value came to 0.0724.

On to “HMDLDPNKPAIPIAYPRVLLNIMAEKGFSRTEVLAGSGLADSVFDKPDHRITPAQFLFILMNSFYLS”, for which the “soluble fraction (log2)” value is -0.601. For “HMKSLHSEVTDRIRQLIVESHLQPGQRVPELEISRDLGVSRTPIREALKVLAAEGLVELLPLRGAMVK”, the “soluble fraction (log2)” value was 0.0612. “HMKEQIKVPDLSNKTPEEAKKELNTLGLGARKGGEESSDTVEEGLITRQEPAAGEQVDKNTQILFYVSTGK”: the “soluble fraction (log2)” value was 0.0624.

Consider “HMLLSHTAQREGELLTFLRGELALSSGLVKRLKWQNAFFLDGAPVHTNARVKPGQEITVRIEE”, for which the “soluble fraction (log2)” value was -0.143. To “HMHPFELNTVTEGQLKRLPFLSDLQIRELLEYRSRYGKMLTLYELKNVEAFDLETISLLVPFIYISEI” belongs -1.38. On to “HMGTAESIRLFLSSGLIKGVGEALAGRIVDTFGTDTFDIIENHPELLAGVKGISHRLAMSIYESFSQHIGV”, for which the “soluble fraction (log2)” value was -1.03. To “HMNTDVEKQKVFTALFDDYFRRNSMTSLEKQLFLTALKTNFQNAQKTVAKDHPYYATYSLIISAIENYR” belongs 0.145; to “HMVVKLTQEQDRFIKTFNDKSLAFYYISSWGWGSFLRNGIGGVYEGDKTPFTLDEKEKMLNAIINGYEVI”, -1.82.

On to “HMAQELPYEKVTMNGKMFYVYHVKAGEGLYLISRTFSVNADEILKFNPSIENGLKSGQVLYIPIK”, for which the “soluble fraction (log2)” value is -0.0691. Then “HMDVLNPGDKAVTTASWLNFRTGPGMQNKVASVLARNTTVNIIEKSNEWYKVSLANGSTGYVHGMYLSKIT”, with -0.0937; and “HMRDLVTYVVQVNGKLRGKLEVSPSTDDNSLKTMALELENVQRALEGLSVKKVIVIPGKMVSIAAG”, with 0.167. For the sequence “HMESGSSKINQDILETFTRGKKSLSISDISRLSGHHRHTVARYLDNLVSSGKLEMRQHGQKKKYYLSDIQP”, the “soluble fraction (log2)” value turned out to be 0.0308. As to “HMSETEWGEIYRKVMAAGLIPARSVRERLLALPSIEPLLQAAEAAGSKGMLDETLLDSLLSKT”, the “soluble fraction (log2)” value is 0.134. For the sequence “HMNDTSLIIDNLMLKLGNNIKNFSEIYSLLRKNLAEYGEEFIKSKVDYVLKNFNDNIEENLKKLLTE”, the “soluble fraction (log2)” value was -0.218. To “HMPMTRILFLPDDRTILQFDSAEPAEDLVSAVNAGRWLPPEPYRSGFGLGLPENRLRASRQGALVVVMLS” belongs -0.967; to “HMSSIYVYPNPTANRIYIQADNIKKAELFDLMGRKVRSTNQPQIDISRLSRGNYILQVKTQNNTQSFKIIK”, -0.476; to “HMQYYITKIANYDQVSPNLLVRTAEGQYMVKTNADILDTDVTKLTEEEIRKDWGYLFENGFSELV”, -0.814. For the sequence “HMAFRIGGFVQEGSVVRQQDGGTVRFEVTDTAHSVPVTYKGSLPDLFKEGKGVVAQGKLMNGTFVADQVLA”, the “soluble fraction (log2)” value is -0.0129. Then “HMQISDNTILEDAVSRIIDENPKSVSDYFQGKEAVVGFFIGQIMRETKGTANPKIAREIVISHLEAI”, with -0.778; and “HMEIRNLMPILSHFLNENDIKLSRESVNLVLDRASGNRENLNNELKKIHDYSFSNKIIDFETIKKLTNLG”, with -0.194.

Regarding “HMQVSITGYLGGEKIGLFDDAKFKALAAKQGIAIDYRKAGSPAMMDADRKGMDYLFPSSRAAVEYGNAKGV”, the “soluble fraction (log2)” value is -0.009. For “HMKGLKERLLYFIEYKGLPVQMFEKIVGLSNAAVSKMGDNTRRSTIDKISKSFPELDVNWLLTGQGEMLSY”, the “soluble fraction (log2)” value was -0.255. For “HMNNEISINGNKIYFNKNISKVFIYDISGKLIKHKNNFNNNFIDLSEFNSAFYIIKALDINENYTTKKIFL”, the “soluble fraction (log2)” value is -1.58. As for “HMSRAMFEMHADWQPTDSIRGLLGRAGLPTDIAKLDQSRIGDFVNHWFGKPDRNTADSWNGLLVGWLKRTQ”, the “soluble fraction (log2)” value was -1.18. Regarding “HMTQNSAITNRVLYMQRTLRQYGYAVPESGNFDRTTRAHAAEFLYNATGLPVRENQSVQEFYRAFQRVQG”, the “soluble fraction (log2)” value is -0.981.

For the sequence “HMELPVAVPHTELSPEALRGVVESFVLREGTDYGERDVPFEAKVAQVIRQLERGEARIMFDPVTQSVQIVT”, the “soluble fraction (log2)” value came out at 0.102.

On to “HMRISMRDQVYEIIKNRILSREYSLGEPINIVHLSKELGISNTPIREALSQLETERLITINSNQKYHVT”, for which the “soluble fraction (log2)” value was -0.154.

As for “HMSSWAEGLTERERHTLMWITKGLSNKLIARELGISDSTVKVYVKNLLRKLNVNSRLELAAWVHTHPL”, the “soluble fraction (log2)” value was -0.906. Turning to “HMFTDEELEHIRSALIQAGIRLSKELGLQKMSVEKLTAAVGIAKGSFYMFFGSKEDFILEVAEYTGAQ”, the “soluble fraction (log2)” value was -0.582. As to “HMKGVENLSDIDIQKALNNARANLSKNKAKLEQAGDDEKKKASALAMIQKWETTKKAIEEEIEARKKKSLN”, the “soluble fraction (log2)” value was -0.296. Regarding “HMSEVIYVAEDNVGQRIDVFLVNKLVDASRANIQKNIVDGVILVNNKNVKANYKLRLGDVVEIRTQ”, the “soluble fraction (log2)” value came to 0.156.

With “HMEAEDLRDWVGARGIAYTALRPAGIAVVNGRRVDVVSEGAFVNRDDPVEVVRVEGRRIVVKP”, the “soluble fraction (log2)” value is -0.143. Then “HMAQMDDPEMVLHIYNKMIQQRLFDTAVGYSYLKDLQEYLQSIPFIRKEDIFPIPVQHPQVEESLRKAK”, with -0.367. Then “HMIAWNFDTMKESLSEMERVDYQEFIKAFLSLELSISDRTILNQVYQDYMDEDDLSLISDELRV”, with 0.0819; and “HMTTGGAEELGRTERKIVEQVGRGLSNREIAQVLGLSEGTVRNYLSTILGKLGLRDRTQLAIWSVQTGFAA”, with 0.197.

Values taken from the domain aggregation screens of Martell et al. (2025).
